Consider 18 sequences from the supplement of paper PMC12764529.

± gives the half width of the 95% confidence interval.

The nature of series [1]: folding stability dG unfold from chymotrypsin proteolysis; higher = more stable. A digest of the protocol:
(§1)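 Designed mini-proteins with no cysteine and under 80 residues were kept only if AlphaFold2 dimer inter-PAE was above 15. In a PA-tagged cDNA display construct, they were digested with trypsin and chymotrypsin and then sequenced. K50 was inferred by Bayesian fitting of counts, and unfolding free energy was derived per protease or combined against a sequence-predicted unfolded-state K50 and a shared folded-state K50.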

Series [2] in a line: folding stability dG unfold (combined trypsin and chymotrypsin); higher = more stable. A digest of the protocol: as §1
A short description of series [3]: folding stability dG unfold from trypsin proteolysis; higher = more stable. In a few lines:
as §1

Regarding “SAGGYDFDPRGEFPFPNGVKVEVWEMTWPDGNPMTMIEIEATIPPPPKPPMSPEDAKENNKDMAKNNSAGGS [r16_8_TrROS]”, the “folding stability dG unfold” value is 0.403 ± 0.16 kcal/mol in series [1], 0.211 ± 0.21 kcal/mol in series [2] and -0.415 ± 0.12 kcal/mol in series [3].
Turning to “SAGGYIPASARIEVLEVFEDGTVRVRVTYPDGSEAEVVARLVRTADGRVYLEIFDPRTGRLLATLELTSAGG [r13_527_TrMRF]”, the “folding stability dG unfold” value amounted to 3.81 ± 0.054 kcal/mol in series [1], 3.88 ± 0.092 kcal/mol in series [2] and 4.09 ± 0.09 kcal/mol in series [3].
Regarding “SAGGYKFTIIARFDSVEEAKEWVEEIIRDIFPDNGIEVEVEVETDPENGGVYVKATIEVPPPDPDDFSAGGS [r8_17_TrROS]”, the “folding stability dG unfold” value in series [1] was determined as 4.36 ± 0.23 kcal/mol; in series [2], 4.01 ± 0.3 kcal/mol; in series [3], 2.98 ± 0.17 kcal/mol.
Take “SAGGYKITIPAMFDTPEDALDQVREIARSLGYRITDIKNVEVHKHEDNGMVMVEATIKIEPLPKGQLSAGGS [r16_155_TrROS]”: the “folding stability dG unfold” value in series [1] came to 2.07 ± 0.074 kcal/mol; in series [2], 1.97 ± 0.12 kcal/mol; in series [3], 1.77 ± 0.042 kcal/mol.
The corresponding values for “SAGIEEEVRKLFPDRELEVKVKEKRLKAPNGVPVTLYEVTVTFPDGSRYKLTLTKTPNSVTLSVTPLDASAG [r14_28_JUSTAS]” are 3.34 ± 0.035 kcal/mol, 3.18 ± 0.17 kcal/mol and 2.73 ± 0.2 kcal/mol.
For “SAGIFRFPDGQEITIPYYARTPNGKITPSEIKEQIKEFLAEQPGVKITEIEVEHEDNYVRVTITVRLPKSAG [r5_688_TrROS]” the same measures were 0.316 ± 0.42 kcal/mol, 1.01 ± 0.21 kcal/mol and 1.46 ± 0.14 kcal/mol.
The corresponding values for “SAGISIRFPGMQIEIDEIERDNNKVVIRVEVTMPAKNPNGQPQMMTHTMWIVIKIPPPPPPADPADAKKSAG [r5_70_TrROS]” are 3.96 ± 0.053 kcal/mol, 3.51 ± 0.23 kcal/mol and 2.81 ± 0.12 kcal/mol.
In the case of “SAGITIIIRGPDAKEAAEDIAKELLKNGFKRPITVHVLDPDGKPWYRIKIQFDPKNPGKIKVKVEPYDSAGG [r19_85_TrROS]”, the “folding stability dG unfold” value in series [1] stood at 3.66 ± 0.042 kcal/mol; in series [2] it was 3.65 ± 0.076 kcal/mol; in series [3] it was 3.39 ± 0.089 kcal/mol.
Take “SAGITITVPPGKPYYVHITMYMFDPNGKLMGPQTIMFPIRVPPDDTIEIPIPFDSPNIRITDISIMPKSAGG [r19_295_TrROS]”: the “folding stability dG unfold” value was 2.54 ± 0.094 kcal/mol in series [1], 2.4 ± 0.16 kcal/mol in series [2] and 1.98 ± 0.058 kcal/mol in series [3].
For “SAGIVIPINNPEQAEELAKEFAPEYGYEVEIERVPPGEPLEELPPNDIIVHDPDSGWFYKIKIKRPDEKSAG [r5_173_TrROS]” the same measures were 0.134 ± 0.43 kcal/mol, 0.29 ± 0.24 kcal/mol and 0.38 ± 0.1 kcal/mol.
For “SAGKDGDPPKRVRIKFKIPLPGGKLYEVTQTFYPNGSVHVSIRFPNGWMLSAWIPPDGDIEIKIMPIKKSAG [r5_168_TrROS]” the same measures were 4.3 ± 0.14 kcal/mol, 4 ± 0.23 kcal/mol and 3.37 ± 0.21 kcal/mol.
For “SAGKEIIIPFRDIPPKYIKNQLKKFPPGKEIRIMFPGPEVADYLKEKGFPVRPERIKPITPDDMAKMMNSAG [r5_354_TrROS]” the same measures were -0.186 ± 0.26 kcal/mol, -0.258 ± 0.28 kcal/mol and -0.149 ± 0.4 kcal/mol.
For the sequence “SAGKEKEIAEAIEEFLKEKGYDVKVKLIKVNPNNPNLSKVVLEVEVLGYLPDKKPLGKKRFKLVILGGSAGG [r19_418_TrMRF]”, the “folding stability dG unfold” value in series [1] came out at 2.72 ± 0.046 kcal/mol; in series [2], 2.52 ± 0.17 kcal/mol; in series [3] it was 2.64 ± 0.066 kcal/mol.
Regarding “SAGKEKEVKEVTIKIKIYVTNKNGEKKEITIEVKAKNKEDLLEALKKLGLSVEELKEKFPNIKIVEIEPSAG [r5_430_TrROS_Hall]”, the “folding stability dG unfold” value in series [1] worked out at 4.05 ± 0.22 kcal/mol; in series [2], 4.01 ± 0.55 kcal/mol; in series [3], 2.3 ± 0.22 kcal/mol.
The corresponding values for “SAGKELTIEIVIERNGELITLTIKAKSEEELLEALKKLLEELGFEVEDIKIEKKDGEVIVTVTIRLPKKSAG [r5_946_TrROS_Hall]” are 3.83 ± 0.081 kcal/mol, 3.43 ± 0.15 kcal/mol and 2.7 ± 0.13 kcal/mol.
For “SAGKETVKLVVVNKETNKVVEVTFNKDGEIVSVKVFEVKPAPPPPPVELSEEQLVKTKDGKWRSLEELKSAG [r5_685_TrROS_Hall]” the same measures were 1.19 ± 0.075 kcal/mol, 0.829 ± 0.11 kcal/mol and -0.369 ± 0.13 kcal/mol.
As to “SAGKIEIVEVTKNYVKIKIKNKKTNKTIEIKIPVKKKKGKKLSKEELEELAKKLAKELYPDMKIEVEKVSAG [r5_293_TrROS_Hall]”, the entries for the “folding stability dG unfold” value in series [1], in series [2] and in series [3] were 3.86 ± 0.086 kcal/mol, 3.31 ± 0.27 kcal/mol and 2.24 ± 0.091 kcal/mol, respectively.
For “SAGKIKIEVVKREDGYVVVKIRFEDTGEELVITVPKEDEEKVKELAEELAEKLKEEGIEVEVEVRELPPSAG [r5_815_TrROS_Hall]”, the “folding stability dG unfold” value in series [1] came out at 3.09 ± 0.21 kcal/mol; in series [2] it was 2.86 ± 0.22 kcal/mol; in series [3], 2.53 ± 0.11 kcal/mol.
